Experiment [1] addresses CytERM-mTagBFP.
The target of experiment [2] is CytERM-moxBFP (Aequorea victoria).
Experiment [3] deals with CytERM-EBFP2 (Aequorea victoria).

Turning to CytERM-mTagBFP, the % cells with OSER structures (CytERM assay, n=69 cells) in experiment [1] is 43.5%.
Substance CytERM-moxBFP showed a % cells with OSER structures (CytERM assay, n=109 cells) in experiment [2] of 0.9%.
In experiment [3], CytERM-EBFP2 yielded a % cells with OSER structures (CytERM assay, n=138 cells) of 63.7%.

For the origin of these results see article PMC4499870.
